B1: BMX003-011 (humanized Patri-Cetu-Fc modified) (bispecific antibody)
heavy: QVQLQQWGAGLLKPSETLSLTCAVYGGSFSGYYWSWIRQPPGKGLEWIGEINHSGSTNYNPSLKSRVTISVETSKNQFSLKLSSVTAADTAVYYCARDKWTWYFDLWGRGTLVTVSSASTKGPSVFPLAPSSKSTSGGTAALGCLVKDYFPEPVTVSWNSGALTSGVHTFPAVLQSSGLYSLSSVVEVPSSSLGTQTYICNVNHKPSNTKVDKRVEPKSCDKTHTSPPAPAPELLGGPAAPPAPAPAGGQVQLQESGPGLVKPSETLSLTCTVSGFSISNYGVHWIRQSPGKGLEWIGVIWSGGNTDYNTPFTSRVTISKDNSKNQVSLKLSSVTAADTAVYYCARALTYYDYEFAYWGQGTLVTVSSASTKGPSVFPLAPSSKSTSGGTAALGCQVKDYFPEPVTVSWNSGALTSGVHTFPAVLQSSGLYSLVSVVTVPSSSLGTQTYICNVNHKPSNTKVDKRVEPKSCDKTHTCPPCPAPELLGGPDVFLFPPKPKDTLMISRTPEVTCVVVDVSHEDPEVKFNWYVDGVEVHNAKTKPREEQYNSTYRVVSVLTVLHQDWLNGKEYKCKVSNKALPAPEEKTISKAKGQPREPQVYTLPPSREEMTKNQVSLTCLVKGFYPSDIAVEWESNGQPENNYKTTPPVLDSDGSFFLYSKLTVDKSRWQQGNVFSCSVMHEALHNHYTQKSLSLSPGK
light 1: not shown
light 2: EIVLTQSPDFQSVTPKEKVTITCRASQSIGTNIHWYQQKPDQSPKLLIKYASESISGVPSRFSGSGSGTDFTLTINSLEAEDAATYYCQQNNNWPTTFGAGTKLEIKRTVAAPSVFIFPPSDEQLKSGTASVTCLLNNFYPREAKVQWKVDNALQSGNSQESVTEQDSKDSTYSLVSTLTLSKADYEKHKVYACEVTHQGLSSPVTKSFNRGEC
B2: BMX003-010 (humanized Patri-Cetu-Fc) (bispecific antibody)
heavy: not shown
light 1: not shown
light 2: B1 light 2
B3: Patri-Matu-Fc (bispecific antibody)
heavy: not shown
light 1: not shown
light 2: DIQMTQSPSSLSASVGDRVTITCSASSSVTYMYWYQQKPGKAPKLLIYDTSNLASGVPSRFSGSGSGTDYTFTISSLQPEDIATYYCQQWSSHIFTFGQGTKVEIKRTVAAPSVFIFPPSDEQLKSGTASVTCLLNNFYPREAKVQWKVDNALQSGNSQESVTEQDSKDSTYSLVSTLTLSKADYEKHKVYACEVTHQGLSSPVTKSFNRGEC

Tests used:
HER3 His tag = HER3 His tag (UniProt P21860 20-643); test: ELISA
EGFR His tag = EGFR His tag (UniProt P00533 25-645); test: ELISA
[1] = biological target: EGFR tag free antigen (immobilized) (UniProt P00533 25-645); test: ELISA; dual-binding sandwich: immobilized EGFR-Fc + HER3-His
[2] = biological target: HER3 tag free antigen (immobilized) (UniProt P21860 20-643); test: ELISA; dual-binding sandwich: immobilized HER3-Fc + EGFR-His

| Binder | EC50 (HER3 His tag) [nM] | EC50 (EGFR His tag) [nM] | EC50 [1] [nM] | EC50 [2] [nM] |
| --- | --- | --- | --- | --- |
| B1 | 0.0259 | 0.013 | – | – |
| B2 | 0.0223 | 0.0155 | – | – |
| B3 | – | – | 170 | 0.55 |

Reference: patent publication US20250282892A1 (published 2025)
